B1: recombinant carboxy-terminal FLAG-tagged chicken (Gallus gallus) leukocyte RNase A-2 (protein)
chain: VPTYQDFLYKHMDFPKTSFPSNAAYCNVMMVRRGMTAHGRCKSFNTFVHTDPRNLNTLCINQPDQALRTTRRHFRITDCKLIRSHPTCRYSGNQFNRRVRVGCRGGLPVHLDGTSP
B2: recombinant carboxy-terminal FLAG-tagged chicken (Gallus gallus) leukocyte RNase A-1 (protein)
chain: VPTYQDFLRTHVDFPKTSFPNIAAYCNVMMVRRGINVHGRCKSLNTFVHTDPRNLNTLCINQPNRALRTTQQQLPVTDCKLIRSHPTCSYTGNQFNHRVRVGCWGGLPVHLDGTFP

Biological target: T1, human placental RNase inhibitor, P13489
T1 chain: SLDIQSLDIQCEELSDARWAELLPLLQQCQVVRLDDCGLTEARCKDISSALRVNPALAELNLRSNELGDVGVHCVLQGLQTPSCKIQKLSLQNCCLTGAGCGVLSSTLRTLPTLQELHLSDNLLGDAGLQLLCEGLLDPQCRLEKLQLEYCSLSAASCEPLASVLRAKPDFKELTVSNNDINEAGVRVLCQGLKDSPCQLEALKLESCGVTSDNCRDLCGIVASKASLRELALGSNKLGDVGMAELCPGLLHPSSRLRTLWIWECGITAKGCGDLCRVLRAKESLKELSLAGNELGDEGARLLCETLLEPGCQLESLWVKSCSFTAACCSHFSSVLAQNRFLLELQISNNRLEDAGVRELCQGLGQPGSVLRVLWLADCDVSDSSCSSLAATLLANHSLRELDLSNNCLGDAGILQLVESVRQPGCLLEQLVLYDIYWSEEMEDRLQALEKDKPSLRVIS

| Protein | RNase activity (yeast tRNA substrate) |
| --- | --- |
| B1 | completely inhibited RNase activity |
| B2 | completely inhibited RNase activity |
